The subject of this data set is Klebsiella pneumoniae. The data set is described as follows: Growth inhibition by induced E. coli antisense RNA in Klebsiella pneumoniae. The class given is cell-based. To be noted: antisense RNA expression induced with IPTG, serial dilution plating. More on the design: key: +: a positive in Table V below means that at least 10 fold more cells were required to observe a colony on the induced plate than on the non-induced plate; −: If there was no effect of antisense RNA expression in a microorganism, the clone is minus in Table V below. The protocol: To study the effects of transcriptional induction in liquid medium, growth curves were carried out by back diluting cultures 1:200 into fresh media with or without 1 mM IPTG and measuring the OD450 every 30 minutes (min). To study the effects of transcriptional induction on solid medium, 10^2, 10^3, 10^4, 10^5, 10^6, 10^7 and 10^8 fold dilutions of overnight cultures were prepared. Aliquots of from 0.5 to 3 μl of these dilutions were spotted on selective agar plates with or without 1 mM IPTG. After overnight incubation, the plates were compared to assess the sensitivity of the clones to IPTG.
Molecule No. EcXA190, encoding a portion of the b3052 gene of Escherichia coli, was either transformed directly into Enterobacter cloacae, Salmonella typhimurium and/or Klebsiella pneumoniae or subcloned into an expression vector functional in these species and the subclones transformed into these organisms. Suitable expression vectors are well known in the art. These expression vectors were introduced into Enterobacter cloacae, Salmonella typhimurium and/or Klebsiella pneumoniae cells that were then assayed for growth inhibition according to the method of Example 1. After growth in liquid culture, cells were plated at various serial dilutions and a score determined by calculating the log difference in growth for INDUCED vs. UNINDUCED antisense RNA expression as determined by the maximum 10 fold dilution at which a colony was observed. If there was no effect of antisense RNA expression in one organism, the clone is given a score of zero “0” in that organism. In contrast, a score of “8” means that 10^8 times more cells were required to observe a colony formed on the induced state than in the non-induced state under the conditions used and in that organism.
In addition, the above methods were validated using other antisense nucleic acids which inhibit the growth of E. coli which were identified using methods similar to those described above. Expression vectors which inhibited growth of E. coli upon induction of antisense RNA expression with IPTG were transformed directly into Enterobacter cloacae, Klebsiella pneumonia or Salmonella typhimurium. The transformed cells were then assayed for growth inhibition according to the method of Example 1. After growth in liquid culture, cells were plated at various serial dilutions and a score determined by calculating the log difference in growth for INDUCED vs. UNINDUCED antisense RNA expression as determined by the maximum 10 fold dilution at which a colony was observed. If there was no effect of antisense RNA expression in a microorganism, the clone is minus in Table V below. In contrast, a positive in Table V below means that at least 10 fold more cells were required to observe a colony on the induced plate than on the non-induced plate under the conditions used and in that microorganism.

The values below come from patent US20020022718A1, “Genes identified as required for proliferation of E. coli” (priority 1999, published 2002).

B1: EcXA146: antisense clone insert to E. coli pstB (nucleic acid, listed as Escherichia coli)
antisense: GTAGAAGTTCAAATTACGAACCTGAATTTTACTCGGGGCAGTTTCAACCATACTCATTGCAATCTTTTCCTCATCGTGCCTGATGCACTTCGCTAATCAGGCTTACCGTAGGCCGGATCAGG
As for B1, the “Sensitivity of K. pneumoniae to antisense nucleic acid (growth inhibition, induced vs. uninduced)” value was “−”.

B2: EcXA143: antisense clone insert to E. coli b2846 (nucleic acid, listed as Escherichia coli)
antisense: AACGTAAAACTTTACGTAAATTAACATGGTTAACATTTATGCCACTATTGTTTGTAAATTCATATTTCGTAATGCTTCTGAATTTTTCGTGTGATGGTTTTAAATACTATGGTGTTTACTCTTGAGGGGACGGCCTATTTATAAAATACGGACATTTCAATAAATGCCCGTATAAACAGAGTATGATTCTGGCTGGTCGTTGAGTATCAATGTTGGACCGAATGTGAACGAATAAATAATTCGTTTATTTTACCACCCATTCTCTTTTCGATTCGTTGCTTGTACGCGTAGATGCTACGGATATCCATATCCAGAACTTCAGCAATCTGATATGGATTATAACCAGAAACCATATACCCCATTATGGTGAATTCCATCTGAGTTAATGT
As for B2, the “Sensitivity of K. pneumoniae to antisense nucleic acid (growth inhibition, induced vs. uninduced)” value is recorded as “−”.

B3: EcXA152: antisense clone insert to E. coli bcr (nucleic acid, listed as Escherichia coli)
antisense: AGCTGATCGATGGTGTTTGCCAACGCACACGCCACCGCGGCGGCGGCAAACACCANCGTACCGCCGAGCACCACCGGCTTACGCCCGAAGCTGTCTGCCATCGGCCCGTAGATTAACTGCCCCAACGCAAAGCCCAGAATATAAGTACTGAGGGTCATCTGCGTACTGCCCGNCGGTACGCCAAACTGCGCTGAAATTACCGGTAGCGCGGGCAGATACATATCAATCGACAGCGGCATCAACATGGCCAGCAGGCCAAGGATAAAAACAATAGCAAACGACGAATGCTGTCGGGTGGTC
modifications: misc_feature (1)...(300): n = A,T,C or G
notes: antisense clone insert to E. coli bcr
With B3, the “Sensitivity of K. pneumoniae to antisense nucleic acid (growth inhibition, induced vs. uninduced)” value was “−”.

B4: EcXA153: antisense clone insert to E. coli yjbI (nucleic acid, listed as Escherichia coli)
antisense: CAACATCTCATGTCTGGATTTGTAGATATACGTGGAATTCCAATTGGTATCTTTTGTAGGATTCAACATATCATGTAAGCGCTGGGAGCTTACCACCATAACTGGCCCATCATCGACTGAGGAGAACAGGATAAAGATATTATCGTTTCGTGTTAATTCATTCGTGTTAAAGGTTCTTAAATTATCTTCAGTTTCTATAAATATAGG
Turning to B4, the “Sensitivity of K. pneumoniae to antisense nucleic acid (growth inhibition, induced vs. uninduced)” value is listed as “−”.

B5: EcXA139: antisense clone insert to E. coli b0874 (nucleic acid, listed as Escherichia coli)
antisense: AGGTTACTGGCGAGGTTATCGAGAAACGCCAGACTGATACCCATAAAAAAGAGAATAAGGTAAACCATCCAGCTTAATAGCTGATTAATAACTTTTAACGCAGCTTGTTGGCGAAGCGGAATGAGGTAACCCACAATCAGGGGAACCAGAATGATTAACAGCCCAGAAAACATGAAAACCCAGTCCTTGCAAAGATGAAGTCGAAATGCGCGATGACACACTACTGAAAGCGGAAGGACGAGTAAAGTTGCAATTAAAAGGAAATGTTATGCATAAGGAGCAGTAGAGTATTCGTTTTCATTTAAAGATATTCTTGCGCTTTAATTACAAACTGCACCGATGTTGGTGGCGTCAAAATCGCCGAGGCGTTCCCTGAAGGCCGGGGCAGCCCACATGGATGTGGGCTGAGGGCGCGTTTTACAGGG
For the molecule B5, the “Sensitivity of K. pneumoniae to antisense nucleic acid (growth inhibition, induced vs. uninduced)” value was “−”.

B6: EcXA141: antisense clone insert to E. coli rfc (nucleic acid, listed as Escherichia coli)
antisense: CGATTATAGGGCTGACCAAATACATGGATAGATAATATGCCATCCCCCCAGGCAGTCCACGTAAAAAGAGCATATACAAGGAGAATAGAACACCTACAGCTGTAATAAGATAAACATAATGTTTTACTCTATTAACACCTACGATGAATGCATAAGAGATGATAACCATAAAGACAATTTGCTTACCAGTATTCAGTATAATTGCAAAGATGAATACAATAAAAACAAGTAAAGTAAATGTTTTACTTACCTTTGTATTAGTAAATTTTTTA
Take B6: the “Sensitivity of K. pneumoniae to antisense nucleic acid (growth inhibition, induced vs. uninduced)” value is listed as “−”.

B7: EcXA147: antisense clone insert to E. coli b1111 (nucleic acid, listed as Escherichia coli)
antisense: TAAATTCCGCGTATAGCGTGGGCGCTTTGGCTCCGGTCGCTTCGACGAGGTCCGCAAGAGAAGTCGCTTCATAACCGTGTTGCCAGAACAATTTCATGGCCTTATCAAGCGCGGCATCCCTGTCGAACACTTTTGGGCGGCCACGGCTTTTTTTTACACATTG
On to B7, for which the “Sensitivity of K. pneumoniae to antisense nucleic acid (growth inhibition, induced vs. uninduced)” value is listed as “−”.

B8: EcXA148: antisense clone insert to E. coli rffM (nucleic acid, listed as Escherichia coli)
antisense: GCAAATGTTTTCGTAATTCAGGAGAAATGGCAAATAAAGCATTAAAAATTTGAATGCTTTGTGTAATAAAAAAGCAGACAGGCGACGGAGTGACCACTCCGTCGCTTTACAAAGAGAGGAAAATCATAGGTTGCCGGTGTAGTGCCAGCGTAAATAACGCA
For B8, the “Sensitivity of K. pneumoniae to antisense nucleic acid (growth inhibition, induced vs. uninduced)” value is “−”.

B9: EcXA145: antisense clone insert to E. coli thyA (nucleic acid, listed as Escherichia coli)
antisense: TCGAAGAATTTAACGGAGGGTAAAAAAACCGACGCACACTGGCGTCGGCTCTGGCAGGATGTTTCGTAATTAGATAGCCACCGGCGCTTTAATGCCCGGATGCGGATCGTAGCCTTCAATCTCAAAGTCTTCGAAACGGTAGTCGAAGATGGATTCGGGTTTACGTTTGATAATCAACTTCGGC
On to B9, for which the “Sensitivity of K. pneumoniae to antisense nucleic acid (growth inhibition, induced vs. uninduced)” value was “−”.

B10: EcXA142: antisense clone insert to E. coli rpmJ, rpsM (nucleic acid, listed as Escherichia coli)
antisense: TGCGATTACGGCATGCTTATGATCAGGAATGTTAATGCCTGCTATACGGGCCACTATGCACTCCTACTATTTAATATGTACGTTCCATGCTGAAAAGCCCGTTTTCAGGATACTCAAATGGAAACGCACAGACATACAAAAGATTGGCTGGCTAATCTAGCCAGCTCAACCCAACTTTGCAAGAAAAATATGCGAAAAAATCAGCCTTGGCGCTGTTTATGCTTCGGCTCGGCACTGCAAATCACACGGATGACA
On to B10, for which the “Sensitivity of K. pneumoniae to antisense nucleic acid (growth inhibition, induced vs. uninduced)” value is “−”.

B11: EcXA150: antisense clone insert to E. coli spoT (nucleic acid, listed as Escherichia coli)
antisense: CCGGGGCTGACGTGGGCGATAATCGGGTCGCCAGGAATAGGGCGGCAGCATTTCGCAAAGGTGATCAGCACGCCATCGGCACCTTTAATGGGCAGATGTCCGTGGCTTTGGGTTGCCGGTGGAATGGAGGCGTCCCCATGTTGCAGATTTTTCGCGACCACCACGCTCATTGCGTTACCA
For B11, the “Sensitivity of K. pneumoniae to antisense nucleic acid (growth inhibition, induced vs. uninduced)” value is listed as “−”.

B12: EcXA151: antisense clone insert to E. coli dctA (nucleic acid, listed as Escherichia coli)
antisense: TGTCGAGCATACGCGGCAGCGCCGACTCGGAAGATGAAGTCCCCAGTACAATCAGCAGTTCTTCACGGATGTAGCGGATAAATTTGAAGATACTGAAACCAGTCGCTTTAGCGATTGAACCCAATACCAGCACCACAAACAGGATACAGGTAATGTAGAAACAGATAATCAGCTGCCCCAGTTGCACCAGTGTGCCGACGCCGTATTTACCGATGGTAAACGCCATTGCCCCGAACGCACCAATAGGTGCCAGA
Regarding B12, the “Sensitivity of K. pneumoniae to antisense nucleic acid (growth inhibition, induced vs. uninduced)” value was “−”.
